Laboratory results published in patent US20160083466A1.

Biological target: human IL-25 expressed with a C-terminal myc-myc-hexahistidine tag (human)
Experiment: competition ELISA, 2 nM hIL-25-MMH binding to coated hIL-17RB-hFc; IC50 cell printed 'Non-blocker'

Sequence of human IL-25 expressed with a C-terminal myc-myc-hexahistidine tag (human) (chain, as listed by the source): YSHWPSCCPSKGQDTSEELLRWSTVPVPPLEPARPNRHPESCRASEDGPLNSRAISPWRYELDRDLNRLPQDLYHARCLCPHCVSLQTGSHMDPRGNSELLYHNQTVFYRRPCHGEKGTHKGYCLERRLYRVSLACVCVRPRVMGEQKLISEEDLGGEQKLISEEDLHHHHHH

| Substance | % Maximum blocking of 200 nM antibody [%] |
| --- | --- |
| hIgG4 isotype control (antibody) | -31 |
| mIgG2a isotype control (antibody) | -45 |
